For the experiment, the target named is T1, KRS WT-myc (C-terminus myc tagged KRS wild type) (human, UniProt Q15046 1-597).
T1 construct: Overexpressed in HCT116 cells and tested in lysate; The N-terminus may be cleaved in the cells under starvation; also called KRS-myc
Briefly: anti-myc immunoprecipitation from starved cells, western blot for syntenin-1 (FIG. 3d). The procedure:
FIG. 3d illustrates results investigating the interaction between KRS and syntenin-1 using D12A mutant. C-terminus myc tagged KRS WT and D12A mutant were transfected and overexpressed in cells, and after 24 hr, the transfectants were incubated in serum starvation media for 1 hr, followed by precipitation using anti-myc antibody, and then KRS-bound syntenin-1 was monitored by western blot (mock: control with empty vector introduced into cells).
The cells were lysed with 50 mM Tris-HCl (pH 7.4) buffer containing 150 mM NaCl, 10 mM NaF, 12 mM beta-glycerophosphate, 1 mM EDTA, 1% NP-40, 10% glycerol, and protease inhibiting agent. Then, the supernatant was dissolved in SDS sample buffer, followed by separation using SDS-PAGE. For immunoblotting of endogenous KRS, anti-KRS antibody was used. Antibodies against Hsp90, syntenin-1, GFP, myc, caspase-3, -6, -8, -9, while syntenin-1 were purchased from Santa Cruz, and antibodies against alix were purchased from Cell Signaling. The anti-KRS antibody was manufactured by ordinary procedures in which KRS protein (Genbank Accession No. NP_005539.1) represented by SEQ ID NO: 2 was injected into New Zealand white rabbits to induce immune response and their antibodies were obtained. […]
(A western blot detects proteins with antibodies after separation by electrophoresis.)

T1 sequence (Q15046 whole entry): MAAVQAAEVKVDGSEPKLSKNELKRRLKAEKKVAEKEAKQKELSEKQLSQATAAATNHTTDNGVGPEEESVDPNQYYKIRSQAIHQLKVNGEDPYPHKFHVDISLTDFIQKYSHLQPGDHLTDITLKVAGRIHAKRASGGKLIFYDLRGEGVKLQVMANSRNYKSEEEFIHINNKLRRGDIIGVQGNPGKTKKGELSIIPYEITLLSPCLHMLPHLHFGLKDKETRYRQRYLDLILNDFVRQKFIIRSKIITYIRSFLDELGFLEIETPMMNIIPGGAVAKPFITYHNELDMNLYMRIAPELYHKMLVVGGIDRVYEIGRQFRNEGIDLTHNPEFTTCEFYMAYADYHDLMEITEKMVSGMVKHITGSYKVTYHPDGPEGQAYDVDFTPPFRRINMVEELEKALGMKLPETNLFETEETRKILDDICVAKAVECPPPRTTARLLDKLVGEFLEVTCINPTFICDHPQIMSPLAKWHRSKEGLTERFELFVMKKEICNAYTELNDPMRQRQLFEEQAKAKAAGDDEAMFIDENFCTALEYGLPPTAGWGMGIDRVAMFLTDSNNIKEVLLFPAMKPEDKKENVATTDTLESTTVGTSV

B1: syntenin-1, endogenous in HCT116 cells (other)
chain: SLYPSLEDLKVDKVIQAQTAFSANPANPAILSEASAPIPHDGNLYPRLYPELSQYMGLSLNEEEIRANVAVVSGAPLQGQLVARPSSINYMVAPVTGNDVGIRRAEIKQGIREVILCKDQDGKIGLRLKSIDNGIFVQLVQANSPASLVGLRFGDQVLQINGENCAGWSSDKAHKVLKQAFGEKITMTIRDRPFERTITMHKDSTGHVGFIFKNGKITSIVKDSSAARNGLLTEHNICEINGQNVIGLKDSQIADILSTSGTVVTITIMPAFIFEHIIKRMAPSIMKSLMDHTIPEV
Consider B1, for which the binding result was “binds”.

The values above are taken from US20170073659A1 (MEDICINAL BIOCONVERGENCE RESEARCH CENTER, published 2017).
